# Data as given in article PMC7853477.
# How the values were obtained:
# [1] = target: SARS-CoV-2 S protein receptor-binding domain RBDv1 (319–541) with C-terminal c-myc and 6xHis tags (SARS-CoV-2) (UniProt P0DTC2); assay: non-reducing SDS-PAGE with gel densitometry
# [2] = target: SARS-CoV-2 S protein receptor-binding domain RBDv2 (320–537) with C-terminal c-myc and 10xHis tags (SARS-CoV-2) (UniProt P0DTC2); assay: non-reducing SDS-PAGE with gel densitometry
Substance,stoichiometry N [1],percent covalent dimer [2],stoichiometry N [2]
SARS-CoV-2 S protein receptor-binding domain RBDv1 (319–541) with C-terminal c-myc and 6xHis tags (from UniProt P0DTC2 319-541) (domain or fragment),2,–,–
SARS-CoV-2 S protein receptor-binding domain RBDv2 (320–537) with C-terminal c-myc and 10xHis tags (from UniProt P0DTC2 320-537) (domain or fragment),–,6%,2
